This is an account of results in patent US20240384250A1, “FIBROBLAST GROWTH FACTOR 23 MODULATING COMPOUNDS” (THE UAB RESEARCH FOUNDATION, priority 2021, published 2024).

The test system of assay [1] is intact hearts isolated from adult mice. Description: Isolated heart contractility. Set-up: species or system mouse. The settings on record: FGF23 9 ng/ml, 30 minutes. How it is done: Isolated heart contractility was performed as described previously. 14,70,71 Briefly, 2- to 3-month-old male CD-1 mice were anesthetized using 3% isoflurane and hearts were carefully removed and placed into oxygenated Ringer's solution composed of 140 mM NaCl, 2.0 mM KCl, 2.5 mM CaCl2), 1.0 mM MgSO4, 1.5 mM K2HPO4, 10 mM N-2-hydroxyethylpiperazine-N-2-ethanesulfonic acid, and 10 mM glucose (pH 7.4). Atria were then removed, and the intact ventricular muscle was attached to small metallic clips hung vertically from a force transducer (ADInstruments) between bipolar platinum-stimulating electrodes and suspended in 25-ml glass tissue chambers (ADInstruments). Heart muscles were perfused with Ringer's solution continuously bubbled with 100% O2 at room temperature. Hearts were stretched to the length of maximum force development and paced at 1 Hz (5 ms pulse duration, 30-60 V; Grass Instruments SD9 Square Pulse Stimulator). After a stable baseline was obtained, hearts were treated with either vehicle or FGF23 (9 ng/ml) alone or in combination with heparin (0.06 USP/ml) while contractile force output was monitored for 30 minutes. Contractile data were recorded and analyzed with LabChart 8 software (ADInstruments). Waveform changes were analyzed for peak contraction force (in millinewtons) and maximum slope of force development and presented as fold change from baseline values.

The target in assay [2] is T1, FGF23 binding to FGFR2c (Homo sapiens, UniProt P21802).
T1 construct: Fc-coupled FGFR ectodomains were immobilized on protein A/G beads; purchased R&D Systems 2604FG025/CF or 2629FG025/CF; 712FR050
The assay is described as follows: Pull-down of FGF23 with Fc-FGFR on protein A/G beads with sKL, heparin or PBS. As to conditions: with heparin, or alone. How it is done: (§1) To study the interaction between Fc-tagged FGFR isoforms (Fc-FGFR), FGF isoforms, and sKL, immunoprecipitation studies were conducted. Protein A beads (6501, BioVision) and protein G beads (6511, BioVision) were used at 25 μl of a 50% stock slurry per sample in a total bead volume of 50 μl. Beads were washed 5× in activity buffer (50 mM Tris [pH 7.4], 200 mM NaCl, 0.01% Tween 20). Bead spin-down assays were all performed for 2 minutes at 5000 g. Beads were resuspended in 1 ml of activity buffer in a 1.5-ml snap cap tube. One microgram of Fc-FGFR1 to 4 was incubated with the beads for 1 hour on a bead rotator. Control samples were incubated with 2 μg of anti-FGF antibody instead of Fc-FGFR. Beads were then pelleted at 5000 g for 2 minutes and washed 5× with activity buffer. Beads were resuspended and incubated with different combinations of 500 ng of FGF, 1 μg of sKL, 1.6 United States Pharmacopeia (USP) units of heparin, or phosphate-buffered saline (PBS). Beads were incubated for 1 hour on a tube rotator, and beads were pelleted and washed as before. One hundred microliters of 1× Laemmli sample buffer (1610737, Bio-Rad) with 1.42 M 2-mercaptoethanol was added, and samples were boiled for 5 minutes. Samples were analyzed using SDS-PAGE and Western blotting.
(§2) The sample (20 μl) was loaded onto Mini-PROTEAN TGX Precast Gel 4-20% for experiments with <9 samples (4568094, Bio-Rad) or Criterion TGX Precast Gel 4-20% (5678094, Bio-Rad) for experiments with >9 samples. Gels were run in 1× Tris/Glycine/SDS buffer (1610732, Bio-Rad) at 150 V and stopped when the sample dye reached the end of the gel. Gels were removed and electrotransferred via a semi-dry cassette (1703940, Bio-Rad) in I× Tris/Glycine buffer (1610734, Bio-Rad) with 20% methanol. Gels were transferred onto polyvinylidene diflouride membranes (IPVH00010, Millipore) at 20 V for 1 hour. Membranes were then blocked in 5% dried milk with 0.5% Tween 20 diluted in Tris-buffered saline (TBST; pH 7.5) for 1 hour and probed with antibodies against specific antigens at 1:1000 in TBST with 5% dried milk. Blots were washed 3× for 5 minutes in TBST and probed with HRP-coupled secondary antibodies against specific species at 1:10,000 in TBST with 5% dried milk. Membranes were imaged on the SRX-101A X-ray film developer (Konica Minolta).

Assay [3] deals with T2, FGF23 (Homo sapiens, UniProt Q9GZV9).
T2 construct: purchased R&D Systems 2604FG025/CF (human) or 2629FG025/CF (mouse)
T2 sequence (Q9GZV9 25-251): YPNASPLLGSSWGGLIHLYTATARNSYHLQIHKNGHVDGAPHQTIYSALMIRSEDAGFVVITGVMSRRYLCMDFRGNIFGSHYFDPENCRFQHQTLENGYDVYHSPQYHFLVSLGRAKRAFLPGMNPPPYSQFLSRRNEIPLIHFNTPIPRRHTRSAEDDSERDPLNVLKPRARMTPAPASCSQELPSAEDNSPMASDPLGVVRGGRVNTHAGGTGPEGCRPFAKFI
The assay is described as follows: Plate-based binding assay, FGF23 coated, FLAG-sKL detected with anti-FLAG HRP. The settings on record: for binding of FLAG-sKL to coated FGF23 (absorbance at 450 nm): 10 ng FGF coated, 40 ng FLAG-sKL; for binding of FLAG-sKL to coated FGF23 compared with FGFR1c: 20 ng FGF23 coated, 80 ng FLAG-sKL. How it is done:
Proteins were coated on 96-well plates (MaxiSorp; 439454, Thermo Fisher Scientific), and proteins were added to wells in 100 μl of enzyme-linked immunosorbent assay (ELISA) coating buffer (E107, Bethyl Laboratories) with a lid placed overtop and incubated at 4° C. overnight. Plates were washed 5× with 350 μl of assay buffer (50 mM Tris [pH 7.4], 200 mM NaCl, 0.01% Tween 20) on a 50 TS microplate washer (BioTek). Plates were blocked for 1 hour in 200 μl of assay buffer with 0.5% BSA. Plates were washed as before, and proteins were incubated on plates in 100 μl of assay buffer with 0.5% BSA. Proteins or heparin was incubated in orders described in the respective figure legends. Assays using FLAG-tag-based detection were incubated with anti-FLAG coupled to HRP at 1:20,000, and assays using Fc detection were incubated with anti-human Fc coupled to HRP at 1:10,000. Plates were washed as above, and 100 μl of 3,3′,5,5′-tetramethylbenzidine (TMB) substrate (E102, Bethyl Laboratories) was added for 15 to 20 minutes until positive wells developed a dark blue color. Reactions were stopped with ELISA stop solution (E115, Bethyl Laboratories) and analyzed using the Synergy HI plate reader (BioTek) at 450 nm wavelength. […] As a control to remove background absorbance values, wells were coated with an equal amount of BSA to match the amount of protein coated in experimental wells and treated the same as experimental wells. To study the effects of sKL on the binding between paracrine FGFs and FGFRs, plates were run as above except coated with paracrine FGFs. Fc-FGFR1 was preincubated with sKL or vehicle for 60 minutes, and then the combination was added to wells and the assay was run as before.

In assay [4] the target is T3, FGFR2c (Homo sapiens, UniProt P21802).
T3 construct: Fc-coupled FGFR ectodomains were immobilized on protein A/G beads; purchased R&D Systems 712FR050
Description: Pull-down of FLAG-sKL with Fc-tagged FGFR on protein A/G beads, absence of FGF23. The class given is binding. How it is done: as §1, §2

T1 sequence (P21802 22-377 limits assumed): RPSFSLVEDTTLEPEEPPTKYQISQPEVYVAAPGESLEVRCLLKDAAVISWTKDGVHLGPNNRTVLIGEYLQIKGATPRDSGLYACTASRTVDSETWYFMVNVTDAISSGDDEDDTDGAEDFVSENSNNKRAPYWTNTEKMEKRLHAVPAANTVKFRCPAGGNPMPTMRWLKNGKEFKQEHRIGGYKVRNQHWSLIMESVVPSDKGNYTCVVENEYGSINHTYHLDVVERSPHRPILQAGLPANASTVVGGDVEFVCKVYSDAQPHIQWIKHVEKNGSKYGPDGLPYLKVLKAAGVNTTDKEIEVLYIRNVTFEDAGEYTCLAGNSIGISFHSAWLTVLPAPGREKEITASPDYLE
T3 sequence (P21802 22-377 limits assumed): as above

B1: FGF23: recombinant fibroblast growth factor 23 protein from R&D Systems (protein)
chain: YPDTSPLLGSNWGSLTHLYTATARTSYHLQIHRDGHVDGTPHQTIYSALMITSEDAGSVVITGAMTRRFLCMDLHGNIFGSLHFSPENCKFRQWTLENGYDVYLSQKHHYLVSLGRAKRIFQPGTNPPPFSQFLARRNEVPLLHFYTVRPRRHTRSAEDPPERDPLNVLKPRPRATPVPVSCSRELPSAEEGGPAASDPLGVLRRGRGDARGGAGGADRCRPFPRFV
In the case of B1, the peak contraction force entry in assay [1] is listed as “increased cardiac contractile force”. Further, the “FGF23 co-precipitation with Fc-FGFR2c” value in assay [2] is listed as “no FGF23 binding was detected”.

B2: sKL: recombinant soluble α-klotho ectodomain, mouse aa 35-982 and human aa 34-981, FLAG- or Strep/His-tagged, purified from HEK293 cells (protein)
chain: EPGDGAQTWARFSRPPAPEAAGLFQGTFPDGFLWAVGSAAYQTEGGWQQHGKGASIWDTFTHHPLAPPGDSRNASLPLGAPSPLQPATGDVASDSYNNVFRDTEALRELGVTHYRFSISWARVLPNGSAGVPNREGLRYYRRLLERLRELGVQPVVTLYHWDLPQRLQDAYGGWANRALADHFRDYAELCFRHFGGQVKYWITIDNPYVVAWHGYATGRLAPGIRGSPRLGYLVAHNLLLAHAKVWHLYNTSFRPTQGGQVSIALSSHWINPRRMTDHSIKECQKSLDFVLGWFAKPVFIDGDYPESMKNNLSSILPDFTESEKKFIKGTADFFALCFGPTLSFQLLDPHMKFRQLESPNLRQLLSWIDLEFNHPQIFIVENGWFVSGTTKRDDAKYMYYLKKFIMETLKAIKLDGVDVIGYTAWSLMDGFEWHRGYSIRRGLFYVDFLSQDKMLLPKSSALFYQKLIEKNGFPPLPENQPLEGTFPCDFAWGVVDNYIQVDTTLSQFTDLNVYLWDVHHSKRLIKVDGVVTKKRKSYCVDFAAIQPQIALLQEMHVTHFRFSLDWALILPLGNQSQVNHTILQYYRCMASELVRVNITPVVALWQPMAPNQGLPRLLARQGAWENPYTALAFAEYARLCFQELGHHVKLWITMNEPYTRNMTYSAGHNLLKAHALAWHVYNEKFRHAQNGKISIALQADWIEPACPFSQKDKEVAERVLEFDIGWLAEPIFGSGDYPWVMRDWLNQRNNFLLPYFTEDEKKLIQGTFDFLALSHYTTILVDSEKEDPIKYNDYLEVQEMTDITWLNSPSQVAVVPWGLRKVLNWLKFKYGDLPMYIISNGIDDGLHAEDDQLRVYYMQNYINEALKAHILDGINLCGYFAYSFNDRTAPRFGLYRYAADQFEPKASMKHYRKIIDSNGFPGPETLERFCPEEFTVCTECSFFHTRKS
modifications: left off: small tags and cut ends
notes: recombinant soluble α-klotho ectodomain, mouse aa 35-982 and human aa 34-981, FLAG- or Strep/His-tagged, purified from HEK293 cells
Take B2: in assay [3], the “binding of FLAG-sKL to coated FGF23 (absorbance at 450 nm)” value was “bound FGF23” and the “binding of FLAG-sKL to coated FGF23 compared with FGFR1c” value was “to a lesser extent”. In assay [3] (listed as FLAG-sKL), the “binding of FLAG-sKL to coated FGF23 (absorbance at 450 nm)” value is given as “only FGF23 bound FLAG-sKL” and the “binding of FLAG-sKL to coated FGF23 compared with FGFR1c” value is “to a lower extent”. In assay [3] (100 ng FGF23 coated, normalized to sKL amounts), the “FGF23 binding affinity, protein from HEK293 lysates instead of supernatants” value is on record as “higher”. In assay [4], the “sKL binding to FGFR2c” value is listed as “no sKL binding”.
